Laboratory results published in paper PMC1334386 (PLoS Biology, 2006).

Experiments:
Conditions in all cases: both partners purified
[1] = biological target: T1, HAUSP TRAF-like domain (residues 53–206) (UniProt Q93009 53-206); assay: ITC; 10 mM HEPES (pH 8.0), 100 mM NaCl; 4 °C
T1 construct: Cloned into pGEX-2T; source: E. coli BL21(DE3), purified to homogeneity

[2] = biological target: T2, HAUSP TRAF-like domain (residues 1–206) (UniProt Q93009 1-206); assay: SEC; gel filtration on Superdex-200 (10/30); proteins incubated at 4 °C for at least 45 min; 25 mM Tris (pH 8.0), 100 mM NaCl, 2 mM DTT; fractions on SDS-PAGE, Coomassie
T2 construct: Construct not described in the methods; source: purified to homogeneity as previously described
T2 sequence (Q93009 1-206): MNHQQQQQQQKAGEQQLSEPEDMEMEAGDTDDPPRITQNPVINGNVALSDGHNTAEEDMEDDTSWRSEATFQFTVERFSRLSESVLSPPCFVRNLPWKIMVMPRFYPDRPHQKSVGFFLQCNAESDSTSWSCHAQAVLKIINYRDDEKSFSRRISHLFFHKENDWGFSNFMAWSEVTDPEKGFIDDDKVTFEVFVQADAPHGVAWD

[3] = biological target: T1, HAUSP TRAF-like domain (residues 53–206); assay: as above

T1 sequence (Q93009 53-206): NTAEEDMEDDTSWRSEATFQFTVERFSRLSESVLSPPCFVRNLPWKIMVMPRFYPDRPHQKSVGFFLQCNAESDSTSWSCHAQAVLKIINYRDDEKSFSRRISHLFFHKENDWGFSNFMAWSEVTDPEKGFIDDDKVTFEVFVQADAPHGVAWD

Binder | binding result [3] | also measured
ERSSSSESTGTPSNPDLDAGVSEHSGDWLDQDSVS (peptide, UniProt Q00987 208-242, looked up, human MDM2, residues 208-242; also called MDM2 (residues 208–242) peptide) [MDM2 peptide (residues 208–242)] |  | Kd [1]: 3000 nM
MDM2 (residues 208–289) (domain or fragment, human, UniProt Q00987 208-289, looked up, also called MDM2 fragment; source: purified to homogeneity as previously described) ERSSSSESTGTPSNPDLDAGVSEHSGDWLDQDSVSDQFSVEFEVESLDSEDYSLSEEGQELSDEDDEVYQVTVYQAGESDTD |  | binding result [2]: binds
MDM2 fragment (residues 170–232) (domain or fragment, human, UniProt Q00987 170-232, looked up, source: purified to homogeneity as previously described) ENSDELSGERQRKRHKSDSISLSFDESLALCVIREICCERSSSSESTGTPSNPDLDAGVSEHS | binds | 
MDM2 fragment (residues 223–289) (domain or fragment, human, UniProt Q00987 223-289, looked up, source: purified to homogeneity as previously described) DLDAGVSEHSGDWLDQDSVSDQFSVEFEVESLDSEDYSLSEEGQELSDEDDEVYQVTVYQAGESDTD | binds | 
